Assay results: US20240270846A1 (published 2024)

Biological target: T1, CD3 epsilon homodimer protein (UniProt P07766 23-126)
T1 construct: Construct of the homodimer is not described; also called CD3 (CD3 epsilon)
Assay: SPR Biacore T200, CD3e homodimer on chip, antibody analyte;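 note: CD3 epsilon homodimer amine-coupled on CM4 sensor chip, antibodies injected as analyte at 25 °C in HBS-EP+, ratio ≥0.8 taken as binding retained versus unaltered parent antibody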

T1 sequence (P07766 23-126): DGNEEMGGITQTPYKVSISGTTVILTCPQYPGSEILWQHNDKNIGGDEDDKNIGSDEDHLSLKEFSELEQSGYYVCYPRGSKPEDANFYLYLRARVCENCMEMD

| ratio of amounts bound (altered form/GLS3000) | Binder |
| --- | --- |
| 1.36 | GLS3000 S56R one-arm antibody (antibody, human IgG1, kappa, L234A L235A, N297A, name in Kabat numbering) light: DIVMTQSPLSLPVTPGEPASISCRSSQSLVHSNRNTYLHWYQQKPGQAPRLLIYKVSNRFRGVPDRFSGSGSGTDFTLKISRVEAEDVGVYYCGQGTQVPYTFGQGTKLEIKRTVAAPSVFIFPPSDEQLKSGTASVVCLLNNFYPREAKVQWKVDNALQSGNSQESVTEQDSKDSTYSLSSTLTLSKADYEKHKVYACEVTHQGLSSPVTKSFNRGEC heavy: QVQLVESGGGVVQPGRSLRLSCAASGFTFSNAWMHWVRQAPGKGLEWVAQIKAKSNNYATYYAESVKGRFTISRDDSKNSLYLQMNSLKTEDTAVYYCRYVHYGAYYGVDAWGQGTTVTVSSASTKGPSVFPLAPSSKSTSGGTAALGCLVKDYFPEPVTVSWNSGALTSGVHTFPAVLQSSGLYSLSSVVTVPSSSLGTQTYICNVNHKPSNTKVDKKVEPKSCDKTHTCPPCPAPEAAGGPSVFLFPPKPKDTLMISRTPEVTCVVVDVSHEDPEVKFNWYVDGVEVHNAKTKPREEQYASTYRVVSVLTVLHQDWLNGKEYKCKVSNKALPAPIEKTISKAKGQPREPQVYTLPPSRCELTKNQVSLSCAVKGFYPSDIAVEWESNGQPENNYKTTPPVLDSDGSFFLVSKLTVDKSRWQQGNVFSCSVMHEALHNHYTQKSLSLSPDYKDDDDK EPKSSDKTHTCPPCPAPELLGGPSVFLFPPKPKDTLMISRTPEVTCVVVDVSHEDPEVKFNWYVDGVEVHNAKTKPREEQYNSTYRVVSVLTVLHQDWLNGKEYKCKVSNKALPAPIEKTISKAKGQPREPQVCTLPPSRDELTKNQVSLWCLVKGFYPSDIAVEWESNGQPENNYKTTPPVLDSDGSFFLYSKLTVDKSRWQQGNVFSCSVMHEALHNRYTQKSLSLSP |
| 1.38 | GLS3000 S56W one-arm antibody (antibody, human IgG1, kappa, L234A L235A, N297A, name in Kabat numbering) light: DIVMTQSPLSLPVTPGEPASISCRSSQSLVHSNRNTYLHWYQQKPGQAPRLLIYKVSNRFWGVPDRFSGSGSGTDFTLKISRVEAEDVGVYYCGQGTQVPYTFGQGTKLEIKRTVAAPSVFIFPPSDEQLKSGTASVVCLLNNFYPREAKVQWKVDNALQSGNSQESVTEQDSKDSTYSLSSTLTLSKADYEKHKVYACEVTHQGLSSPVTKSFNRGEC heavy: QVQLVESGGGVVQPGRSLRLSCAASGFTFSNAWMHWVRQAPGKGLEWVAQIKAKSNNYATYYAESVKGRFTISRDDSKNSLYLQMNSLKTEDTAVYYCRYVHYGAYYGVDAWGQGTTVTVSSASTKGPSVFPLAPSSKSTSGGTAALGCLVKDYFPEPVTVSWNSGALTSGVHTFPAVLQSSGLYSLSSVVTVPSSSLGTQTYICNVNHKPSNTKVDKKVEPKSCDKTHTCPPCPAPEAAGGPSVFLFPPKPKDTLMISRTPEVTCVVVDVSHEDPEVKFNWYVDGVEVHNAKTKPREEQYASTYRVVSVLTVLHQDWLNGKEYKCKVSNKALPAPIEKTISKAKGQPREPQVYTLPPSRCELTKNQVSLSCAVKGFYPSDIAVEWESNGQPENNYKTTPPVLDSDGSFFLVSKLTVDKSRWQQGNVFSCSVMHEALHNHYTQKSLSLSPDYKDDDDK EPKSSDKTHTCPPCPAPELLGGPSVFLFPPKPKDTLMISRTPEVTCVVVDVSHEDPEVKFNWYVDGVEVHNAKTKPREEQYNSTYRVVSVLTVLHQDWLNGKEYKCKVSNKALPAPIEKTISKAKGQPREPQVCTLPPSRDELTKNQVSLWCLVKGFYPSDIAVEWESNGQPENNYKTTPPVLDSDGSFFLYSKLTVDKSRWQQGNVFSCSVMHEALHNRYTQKSLSLSP |
| 0.49 | GLS3000 T31E one-arm antibody (antibody, human IgG1, kappa, L234A L235A, N297A, name in Kabat numbering) light: DIVMTQSPLSLPVTPGEPASISCRSSQSLVHSNRNEYLHWYQQKPGQAPRLLIYKVSNRFSGVPDRFSGSGSGTDFTLKISRVEAEDVGVYYCGQGTQVPYTFGQGTKLEIKRTVAAPSVFIFPPSDEQLKSGTASVVCLLNNFYPREAKVQWKVDNALQSGNSQESVTEQDSKDSTYSLSSTLTLSKADYEKHKVYACEVTHQGLSSPVTKSFNRGEC heavy: QVQLVESGGGVVQPGRSLRLSCAASGFTFSNAWMHWVRQAPGKGLEWVAQIKAKSNNYATYYAESVKGRFTISRDDSKNSLYLQMNSLKTEDTAVYYCRYVHYGAYYGVDAWGQGTTVTVSSASTKGPSVFPLAPSSKSTSGGTAALGCLVKDYFPEPVTVSWNSGALTSGVHTFPAVLQSSGLYSLSSVVTVPSSSLGTQTYICNVNHKPSNTKVDKKVEPKSCDKTHTCPPCPAPEAAGGPSVFLFPPKPKDTLMISRTPEVTCVVVDVSHEDPEVKFNWYVDGVEVHNAKTKPREEQYASTYRVVSVLTVLHQDWLNGKEYKCKVSNKALPAPIEKTISKAKGQPREPQVYTLPPSRCELTKNQVSLSCAVKGFYPSDIAVEWESNGQPENNYKTTPPVLDSDGSFFLVSKLTVDKSRWQQGNVFSCSVMHEALHNHYTQKSLSLSPDYKDDDDK EPKSSDKTHTCPPCPAPELLGGPSVFLFPPKPKDTLMISRTPEVTCVVVDVSHEDPEVKFNWYVDGVEVHNAKTKPREEQYNSTYRVVSVLTVLHQDWLNGKEYKCKVSNKALPAPIEKTISKAKGQPREPQVCTLPPSRDELTKNQVSLWCLVKGFYPSDIAVEWESNGQPENNYKTTPPVLDSDGSFFLYSKLTVDKSRWQQGNVFSCSVMHEALHNRYTQKSLSLSP |
| 0.97 | GLS3000 S56T one-arm antibody (antibody, human IgG1, kappa, L234A L235A, N297A, name in Kabat numbering) light: DIVMTQSPLSLPVTPGEPASISCRSSQSLVHSNRNTYLHWYQQKPGQAPRLLIYKVSNRFTGVPDRFSGSGSGTDFTLKISRVEAEDVGVYYCGQGTQVPYTFGQGTKLEIKRTVAAPSVFIFPPSDEQLKSGTASVVCLLNNFYPREAKVQWKVDNALQSGNSQESVTEQDSKDSTYSLSSTLTLSKADYEKHKVYACEVTHQGLSSPVTKSFNRGEC heavy: QVQLVESGGGVVQPGRSLRLSCAASGFTFSNAWMHWVRQAPGKGLEWVAQIKAKSNNYATYYAESVKGRFTISRDDSKNSLYLQMNSLKTEDTAVYYCRYVHYGAYYGVDAWGQGTTVTVSSASTKGPSVFPLAPSSKSTSGGTAALGCLVKDYFPEPVTVSWNSGALTSGVHTFPAVLQSSGLYSLSSVVTVPSSSLGTQTYICNVNHKPSNTKVDKKVEPKSCDKTHTCPPCPAPEAAGGPSVFLFPPKPKDTLMISRTPEVTCVVVDVSHEDPEVKFNWYVDGVEVHNAKTKPREEQYASTYRVVSVLTVLHQDWLNGKEYKCKVSNKALPAPIEKTISKAKGQPREPQVYTLPPSRCELTKNQVSLSCAVKGFYPSDIAVEWESNGQPENNYKTTPPVLDSDGSFFLVSKLTVDKSRWQQGNVFSCSVMHEALHNHYTQKSLSLSPDYKDDDDK EPKSSDKTHTCPPCPAPELLGGPSVFLFPPKPKDTLMISRTPEVTCVVVDVSHEDPEVKFNWYVDGVEVHNAKTKPREEQYNSTYRVVSVLTVLHQDWLNGKEYKCKVSNKALPAPIEKTISKAKGQPREPQVCTLPPSRDELTKNQVSLWCLVKGFYPSDIAVEWESNGQPENNYKTTPPVLDSDGSFFLYSKLTVDKSRWQQGNVFSCSVMHEALHNRYTQKSLSLSP |
| 1.46 | GLS3000 S56Y one-arm antibody (antibody, human IgG1, kappa, L234A L235A, N297A, name in Kabat numbering) light: DIVMTQSPLSLPVTPGEPASISCRSSQSLVHSNRNTYLHWYQQKPGQAPRLLIYKVSNRFYGVPDRFSGSGSGTDFTLKISRVEAEDVGVYYCGQGTQVPYTFGQGTKLEIKRTVAAPSVFIFPPSDEQLKSGTASVVCLLNNFYPREAKVQWKVDNALQSGNSQESVTEQDSKDSTYSLSSTLTLSKADYEKHKVYACEVTHQGLSSPVTKSFNRGEC heavy: QVQLVESGGGVVQPGRSLRLSCAASGFTFSNAWMHWVRQAPGKGLEWVAQIKAKSNNYATYYAESVKGRFTISRDDSKNSLYLQMNSLKTEDTAVYYCRYVHYGAYYGVDAWGQGTTVTVSSASTKGPSVFPLAPSSKSTSGGTAALGCLVKDYFPEPVTVSWNSGALTSGVHTFPAVLQSSGLYSLSSVVTVPSSSLGTQTYICNVNHKPSNTKVDKKVEPKSCDKTHTCPPCPAPEAAGGPSVFLFPPKPKDTLMISRTPEVTCVVVDVSHEDPEVKFNWYVDGVEVHNAKTKPREEQYASTYRVVSVLTVLHQDWLNGKEYKCKVSNKALPAPIEKTISKAKGQPREPQVYTLPPSRCELTKNQVSLSCAVKGFYPSDIAVEWESNGQPENNYKTTPPVLDSDGSFFLVSKLTVDKSRWQQGNVFSCSVMHEALHNHYTQKSLSLSPDYKDDDDK EPKSSDKTHTCPPCPAPELLGGPSVFLFPPKPKDTLMISRTPEVTCVVVDVSHEDPEVKFNWYVDGVEVHNAKTKPREEQYNSTYRVVSVLTVLHQDWLNGKEYKCKVSNKALPAPIEKTISKAKGQPREPQVCTLPPSRDELTKNQVSLWCLVKGFYPSDIAVEWESNGQPENNYKTTPPVLDSDGSFFLYSKLTVDKSRWQQGNVFSCSVMHEALHNRYTQKSLSLSP |
| 0.95 | GLS3000 S56V one-arm antibody (antibody, human IgG1, kappa, L234A L235A, N297A, name in Kabat numbering) light: DIVMTQSPLSLPVTPGEPASISCRSSQSLVHSNRNTYLHWYQQKPGQAPRLLIYKVSNRFVGVPDRFSGSGSGTDFTLKISRVEAEDVGVYYCGQGTQVPYTFGQGTKLEIKRTVAAPSVFIFPPSDEQLKSGTASVVCLLNNFYPREAKVQWKVDNALQSGNSQESVTEQDSKDSTYSLSSTLTLSKADYEKHKVYACEVTHQGLSSPVTKSFNRGEC heavy: QVQLVESGGGVVQPGRSLRLSCAASGFTFSNAWMHWVRQAPGKGLEWVAQIKAKSNNYATYYAESVKGRFTISRDDSKNSLYLQMNSLKTEDTAVYYCRYVHYGAYYGVDAWGQGTTVTVSSASTKGPSVFPLAPSSKSTSGGTAALGCLVKDYFPEPVTVSWNSGALTSGVHTFPAVLQSSGLYSLSSVVTVPSSSLGTQTYICNVNHKPSNTKVDKKVEPKSCDKTHTCPPCPAPEAAGGPSVFLFPPKPKDTLMISRTPEVTCVVVDVSHEDPEVKFNWYVDGVEVHNAKTKPREEQYASTYRVVSVLTVLHQDWLNGKEYKCKVSNKALPAPIEKTISKAKGQPREPQVYTLPPSRCELTKNQVSLSCAVKGFYPSDIAVEWESNGQPENNYKTTPPVLDSDGSFFLVSKLTVDKSRWQQGNVFSCSVMHEALHNHYTQKSLSLSPDYKDDDDK EPKSSDKTHTCPPCPAPELLGGPSVFLFPPKPKDTLMISRTPEVTCVVVDVSHEDPEVKFNWYVDGVEVHNAKTKPREEQYNSTYRVVSVLTVLHQDWLNGKEYKCKVSNKALPAPIEKTISKAKGQPREPQVCTLPPSRDELTKNQVSLWCLVKGFYPSDIAVEWESNGQPENNYKTTPPVLDSDGSFFLYSKLTVDKSRWQQGNVFSCSVMHEALHNRYTQKSLSLSP |
